Assays:
Test in all cases: IEDB peptide-MHC binding, purified MHC/competitive/radioactivity; ≥ and ≤ were set here for values at or beyond the usual limits of such assays
Conditions in all cases: source organism: Bordetella pertussis
HLA-B*44:03 = biological target: HLA-B*44:03
HLA-B*53:01 = biological target: HLA-B*53:01
HLA-B*57:01 = biological target: HLA-B*57:01
HLA-B*35:01 = biological target: HLA-B*35:01
HLA-A*02:01 = biological target: HLA-A*02:01
HLA-B*07:02 = biological target: HLA-B*07:02

Q: Which IC50 (HLA-B*44:03) does the source give for TRQGIMDQY here?
A: 63.9 µM

Q: How did the IC50 (HLA-B*53:01) turn out when VVDGPPSRP was run?
A: 69.9 µM

Q: Which IC50 (HLA-B*57:01) does the source give for RGSAATFTL here?
A: 10.7 µM

Q: PELGAAIRV was tested. Which IC50 (HLA-B*44:03) did it give?
A: 6.51 µM

Q: Which IC50 (HLA-B*35:01) does the source give for MDAKGGTLL here?
A: 69.9 µM

Q: Which results are given for FVWYVDTVI?
A: IC50 (HLA-B*53:01): 30.2 µM; IC50 (HLA-A*02:01): 0.802 µM

Q: Which IC50 (HLA-B*57:01) does the source give for DNEGKMESN here?
A: ≥ 70.4 µM

Q: With AIRVGRGAR as the sequence, how does the IC50 (HLA-B*53:01) read?
A: 52.7 µM

Q: How did the IC50 (HLA-B*53:01) turn out when AQQLKQADR was run?
A: 47.2 µM

Q: QPLPPRPVA was tested. Which IC50 (HLA-B*07:02) did it give?
A: 8.37 µM

Q: Which IC50 (HLA-A*02:01) does the source give for VSSPPPVSV here?
A: 49.5 µM

Q: TTEYPNARY was tested. Which IC50 (HLA-B*44:03) did it give?
A: 63.5 µM

Q: How did the IC50 (HLA-A*02:01) turn out when GIGALKAGA was run?
A: 69.4 µM

Q: SLFAPHGNV was tested. Which IC50 (HLA-A*02:01) did it give?
A: 7.09 µM

Q: With VPASGAPAA as the sequence, how does the IC50 (HLA-B*35:01) read?
A: 4.66 µM

Q: EVAKVEVVP was tested. Which IC50 (HLA-B*35:01) did it give?
A: 69.9 µM

Q: Which IC50 (HLA-A*02:01) does the source give for ILLENPAAE here?
A: 18.7 µM

Q: How did the IC50 (HLA-B*53:01) turn out when TFEGKPALE was run?
A: 46 µM

Q: Which IC50 (HLA-B*35:01) does the source give for LPVSLTALD here?
A: 7.12 µM

Q: And the IC50 (HLA-B*53:01)?
A: 23.1 µM

Q: How did the IC50 (HLA-B*53:01) turn out when LPLKANPMH was run?
A: ≥ 78.2 µM

Reference: the Immune Epitope Database (IEDB)
